Values of other authors as cited in PMC8281132.

Biological target: CD155 (Homo sapiens) (UniProt P15151)
Sequence of UniProt P15151 (P15151 21-343): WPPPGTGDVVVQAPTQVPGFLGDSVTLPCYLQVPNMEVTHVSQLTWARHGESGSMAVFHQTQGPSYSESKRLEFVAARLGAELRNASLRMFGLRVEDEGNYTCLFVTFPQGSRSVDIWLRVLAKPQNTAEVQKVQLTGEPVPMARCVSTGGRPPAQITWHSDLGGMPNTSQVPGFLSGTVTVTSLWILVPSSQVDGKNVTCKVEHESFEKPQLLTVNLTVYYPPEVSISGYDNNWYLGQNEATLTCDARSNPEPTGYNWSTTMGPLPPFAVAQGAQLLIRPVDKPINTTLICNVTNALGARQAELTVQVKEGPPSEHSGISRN

TIGIT (from UniProt Q495A1)
Kd: 2 nM
